Measured values as given in patent US20170224780A1 (priority 2014, published 2017).

What was measured:
[1] = system: ovaries from 12-day-old neonatal mice; assay: In-vitro culture of whole ovaries incubated with cisplatin with or without AMH, follicle counting; type: cell-based; settings: day 4 and day 7 in culture; results not shown
Description: Ovaries from 12-day-old neonatal mice were further incubated with a different chemotherapy agent-cisplatin, with or without AMH. Control ovaries were cultured with medium alone or with AMH. Ovaries were removed after day 4 and day 7 in culture and processed for histological analysis. The number of primordial and growing follicles was counted. Primordial follicle count in the presence of AMH and cisplatin is higher than in the presence of cisplatin alone (results not shown).

[2] = system: ovaries from 12-day-old neonatal mice; type: cell-based
[3] = system: marmoset ovarian cortical tissues (grafts); assay: Xenotransplantation of frozen-thawed marmoset ovarian cortical strips into castrated SCID mice with rAMH treatment (OTCP-TP model); type: in vivo
Excerpt: Five healthy adult female marmoset monkeys (Callithrix jacchus) at the age range of 13 to 23 months were made available for ovaries excision. Fresh bovine ovaries were collected from lactating milking cows, ages 1.5-3 years (n=12). Ovarian human tissues were harvested from eight donors (age range 13-26 years).
Cortical tissue strips were obtained from marmoset (n=15), bovine (n=15) and human (n=46). The cortical tissue was obtained by removal of the underlying stromal tissue. Slow freezing cryopreservation was performed according to previously published protocols. Briefly, tissue fragments were equilibrated with 0.1M sucrose and 1.5M DMSO for 30 minutes following introduction into the cryopreservation device. A multi-gradient slow freezing protocol cooled the samples to −150° C. following by storage in liquid nitrogen (LN).
Prior to transplantation, tissues were thawed rapidly by equilibrating the samples in decreasing DMSO gradient solutions in 0.1M sucrose and cut into 2×3×2 mm pieces (Marmoset, n=29: n=15 for transplantation experiment and n=14 for transplantation+AMH experiment; Bovine, n=37; Human, n=46). Fresh thawed cortex from each experiment was embedded in […] and further studied.
Seven-weeks-old castrated male immunodeficient mice (n=60) were used as recipient animals. Mice were castrated at 4 weeks and maintained at 28° C. under controlled SPF conditions. Xenotransplantation experiments commenced at least 2-weeks post-orchidectomy.
Ovarian tissue transplantation surgical procedures were performed as described previously. Briefly, a longitudinal incision was made in the dorsum of the anesthetized recipient mouse, the skin was lifted and the ovarian cortical strips were inserted subcutaneously. Size of transplanted tissue from all species was 2×3×2 mm. Each graft was attached in place with a 6-0 non-absorbable prolene suture. Transplanted tissues were recovered after three (3) or seven (7) days.
In a separate experiment, frozen marmoset cortical tissues were thawed, 2×3×2 mm cortical strips were prepared (n=14) and transplanted into castrated SCID mice as described above. rAMH, diluted in PBS, was injected (10 μg in 200 μl, per mouse, i.p.) at the time of transplantation and once daily for 3 consecutive days at 10 μg per mouse, while control mice were injected with PBS. Daily injection protocol was determined according to preliminary experiments using labeled rAMH and rAMH dosage was initially determined according to previous studies.
As the first set of experiments indicated maximal follicle activation and PMF loss in all species (in the absence of AMH) at three days post transplantation, the animals were sacrificed three days post transplantation. The grafts were removed and processed for histological follicle counting analysis and immunohistochemistry.
Recovered grafts and control frozen thawed non transplanted samples were fixed in 4% paraformaldehyde, embedded in paraffin and serial 5 μm sections were prepared from the whole grafts for follicle counts and immunohistochemistry. Follicle classification as primordial or growing was performed on every sixth section of Hematoxylin and Eosin stained sections by two independent observers under a light-microscope (slides/graft: 8 for Marmoset, 9 for Bovine, 6 for Human). Only non-atretic follicles with clearly visible oocyte circled by granulosa-cell layers were referred to in results since no significant difference was found in the number of atretic follicles among the groups. […]

B1: rAMH: Anti-mullerian hormone, protein designated by NCBI Accession No. P03971; recombinant AMH (rAMH) (protein, UniProt P03971 452-560, looked up)
Muellerian-inhibiting factor: SAGATAADGPCALRELSVDLRAERSVLIPETYQANNCQGVCGWPQSDRNPRYGNHVVLLLKMQVRGAALARPPCCVPTAYAGKLLISLSEERISAHHVPNMVATECGCR
B1 was tested, and the “primordial follicle count, AMH and cisplatin vs cisplatin alone” value [1] was “higher”, the “numbers of primordial follicles, PM together with AMH relative to PM alone” value [2] was “significantly greater numbers” and the “primordial or growing follicle numbers, AMH alone vs regular media alone” value [2] was “No difference”. For the same molecule, the “ratio of growing to dormant follicles, PM+AMH vs PM alone” value [2] was “significantly improved”, the “collagen levels (Sirius red staining)” value ([3]; grafts three days post transplantation, both transplanted groups had a marked increase vs untransplanted control) was “no effect” and the “PMF (primordial follicle) count, mean follicle count per section±SE” value ([3]; marmoset grafts three days post transplantation, rAMH 10 μg per mouse i.p. at transplantation and once daily for 3 days, transplanted control 7.66±6.99, untransplanted control 148±37.06, p<0.001) was 56.33±12.12. For the same molecule, the “additionally saved PMF compared to transplanted control” value ([3]; marmoset grafts three days post transplantation, rAMH 10 μg per mouse i.p. daily) was 86.40%, the “GF/PMF ratio (growing to primordial follicles)” value ([3]; transplanted + rAMH group compared to untransplanted control, ratio significantly increased in transplanted control, FIG. 4B) was “normalized” and the “Ki-67 expressing proliferating cells (immunofluorescence, Z-stack reconstruction)” value ([3]; transplanted grafts with vs without rAMH administration) was “Major reduction”.
